Experimental data as given in publication PMC9177983, “Mechanism of transcription modulation by the transcription-repair coupling factor”.

Assays:
Mfd(R953A) = Mfd(R953A) (Escherichia coli, UniProt P30958 1-1148, R953A); assay: SPR; 0.5 mM ATPgS; SPR: 30 mM Tris/HCl pH 7.6, 40 mM KCl, 5 mM MgCl2, 0.005% P20, 0.25 mM EDTA, 0.5 mM DTT, 0.5 mM ATPgS, 20 C; smFRET: 20 mM Tris/HCl pH 8.0, 40 mM KCl, 5 mM MgCl2, 1 mM 2-mercaptoethanol; conditions: protein: recombinant; tags: none stated; label: 5' biotin on AS18; 5' overhang 6 nt (template)
Mfd [1] = biological target: T1, Mfd (Escherichia coli, UniProt P30958 1-1148); assay: as above; conditions: protein: recombinant, tags: none stated
Mfd;RNAP core = Mfd;RNAP core (Escherichia coli;Escherichia coli, UniProt P30958;P0A7Z4;P0A8V2;P0A8T7;P0A800 1-1148;1-329;1-1342;1-1407;2-91, |); assay: SPR; 0.5 mM ATPgS; Mfd titrated onto immobilized RNAP EC; SPR: 30 mM Tris/HCl pH 7.6, 40 mM KCl, 5 mM MgCl2, 0.005% P20, 0.25 mM EDTA, 0.5 mM DTT, 0.5 mM ATPgS, 20 C; smFRET: 20 mM Tris/HCl pH 8.0, 40 mM KCl, 5 mM MgCl2, 1 mM 2-mercaptoethanol; conditions: protein: recombinant;recombinant; tags: none stated;His; copies: 1;2;1;1;1; label: 3' bioTEG on NT; iCy3 on TS; transcription bubble with RNA:DNA hybrid
Mfd [2] = biological target: T1, Mfd; assay: SPR; ATPgS; SPR: 30 mM Tris/HCl pH 7.6, 40 mM KCl, 5 mM MgCl2, 0.005% P20, 0.25 mM EDTA, 0.5 mM DTT, 0.5 mM ATPgS, 20 C; smFRET: 20 mM Tris/HCl pH 8.0, 40 mM KCl, 5 mM MgCl2, 1 mM 2-mercaptoethanol; conditions: protein: recombinant; tags: none stated; label: 3' bioTEG on NT; 9-nt non-complementary bubble (dT9 in NT); blunt ends

B1: dT6_S18:bio_AS18 (dsDNA)
DNA 1: TTTTTTGCCTCGCTGCCGTCGCCA
DNA 2: TGGCGACGGCAGCGAGGC
binding signal (Mfd(R953A)): 2.3 fold weaker Kd than wild type

B2: S18:bio_AS18 (dsDNA)
DNA 1: GCCTCGCTGCCGTCGCCA
DNA 2: TGGCGACGGCAGCGAGGC
Kd (Mfd [1]; label: 5' biotin on AS18, blunt): 90 ± 4 nM

B3: dT15_S18:bio_AS18 (dsDNA)
DNA 1: TTTTTTTTTTTTTTTGCCTCGCTGCCGTCGCCA
DNA 2: TGGCGACGGCAGCGAGGC
Kd (Mfd [1]; label: 5' biotin on AS18, 5' overhang 15 nt (template)): 220 ± 10 nM

B4: NT_49_bio:TS_49 (dsDNA)
DNA 1: CACTACTGCGACTTACAGACATCGAGAGGGTAATGGCGAATAGCACTGA
DNA 2: TCAGTGCTATTCGCCATTACCCTCTCGATGTCTGTAAGTCGCAGTAGTG
modifications: internal Cy3 in TS_49 after nt 31
Kd (Mfd [1]; label: 3' bioTEG on NT, iCy3 on TS, blunt): 170 ± 20 nM

B5: EC scaffold 49-mer (TS_49:NT_49_bio:RNA_15) (mixed)
DNA 1: B4 DNA 2
DNA 2: B4 DNA 1
RNA: AUAUAUAUCGAGAGG
modifications: internal Cy3 in TS_49 after nt 31
Kd (Mfd;RNAP core): 127 ± 6 nM

B6: 49-mer with 9-nt bubble (NT_49_bio_bubble:TS_49) (dsDNA)
DNA 1: CACTACTGCGACTTACAGACTTTTTTTTTGTAATGGCGAATAGCACTGA
DNA 2: B4 DNA 2
Kd (Mfd [2]): 395 ± 7 nM

B7: bio_dT40_S18 58-mer ssDNA (ssDNA)
DNA: TTTTTTTTTTTTTTTTTTTTTTTTTTTTTTTTTTTTTTTTGCCTCGCTGCCGTCGCCA
Kd (Mfd [1]; label: 5' biotin, single strand): ~4000 nM

B8: dT40_S18:bio_AS18 (dsDNA)
DNA 1: B7 DNA
DNA 2: TGGCGACGGCAGCGAGGC
Kd (Mfd [1]; label: 5' biotin on AS18, 18 bp with 5' overhang 40 nt): 300 ± 10 nM

B9: Cy3_dT40_S18:bio_AS18_Cy5 (dsDNA)
DNA 1: B7 DNA
DNA 2: TGGCGACGGCAGCGAGGC
Kd (Mfd [1]; label: 5' Cy3, 5' biotin and 3' Cy5 on AS18, 18 bp with 5' overhang 40 nt): 390 ± 10 nM
